Reference: patent publication US20240287154A1, “MC3R AGONIST PEPTIDES” (The Regents of the University of Michigan, priority 2021, published 2024)
Non-standard residues stand in square brackets, D forms with d. NMeH = CN[C@@H](Cc1c[nH]cn1)C(=O)O; dNle = CCCC[C@@H](N)C(=O)O; Nle = CCCC[C@H](N)C(=O)O; dNMeA = CN[C@H](C)C(=O)O; R1 = not defined here

Biological target: human MC3R (human, UniProt P41968 1-323)
Assay: cell-based or functional assay

Sequence of human MC3R (P41968 whole entry): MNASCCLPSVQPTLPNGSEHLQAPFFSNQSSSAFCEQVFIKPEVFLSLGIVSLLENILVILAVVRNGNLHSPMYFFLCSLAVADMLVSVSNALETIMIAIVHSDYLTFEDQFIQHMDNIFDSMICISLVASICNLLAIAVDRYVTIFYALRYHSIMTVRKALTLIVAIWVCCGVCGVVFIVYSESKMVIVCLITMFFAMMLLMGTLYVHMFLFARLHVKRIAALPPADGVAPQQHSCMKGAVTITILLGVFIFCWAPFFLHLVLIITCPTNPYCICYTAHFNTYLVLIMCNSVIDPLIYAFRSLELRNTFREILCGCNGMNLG

Row | Binder | MC3R cAMP (EC50) | MC3R selectivity (relative to MC4R)
1 | H-YV[Nle][dA]H[dF]R[dW]D-NH2 (SMILES CCCC[C@H](NC(=O)[C@@H](NC(=O)[C@@H](N)Cc1ccc(O)cc1)C(C)C)C(=O)N[C@H](C)C(=O)N[C@@H](Cc1c[nH]cn1)C(=O)N[C@H](Cc1ccccc1)C(=O)N[C@@H](CCCNC(=N)N)C(=O)N[C@H](Cc1c[nH]c2ccccc12)C(=O)N[C@@H](CC(=O)O)C(N)=O) [CTX-1109] | 13.1 nM | 10.6
2 | Ac-[Nle][dA]HFR[dW]D[dR]FG-OH (SMILES CCCC[C@H](NC(C)=O)C(=O)N[C@H](C)C(=O)N[C@@H](Cc1c[nH]cn1)C(=O)N[C@@H](Cc1ccccc1)C(=O)N[C@@H](CCCNC(=N)N)C(=O)N[C@H](Cc1c[nH]c2ccccc12)C(=O)N[C@@H](CC(=O)O)C(=O)N[C@H](CCCNC(=N)N)C(=O)N[C@@H](Cc1ccccc1)C(=O)NCC(=O)O) [CTX-1146] | 170 nM | –
3 | Ac-[Nle][dA][NMeH]FR[dW]DRFG-OH (SMILES CCCC[C@H](NC(C)=O)C(=O)N[C@H](C)C(=O)N(C)[C@@H](Cc1c[nH]cn1)C(=O)N[C@@H](Cc1ccccc1)C(=O)N[C@@H](CCCNC(=N)N)C(=O)N[C@H](Cc1c[nH]c2ccccc12)C(=O)N[C@@H](CC(=O)O)C(=O)N[C@@H](CCCNC(=N)N)C(=O)N[C@@H](Cc1ccccc1)C(=O)NCC(=O)O) [CTX-1186] | 200 nM | 1880
4 | Ac-[Nle][dNMeA]HFR[dW]DRFG-OH (SMILES CCCC[C@H](NC(C)=O)C(=O)N(C)[C@H](C)C(=O)N[C@@H](Cc1c[nH]cn1)C(=O)N[C@@H](Cc1ccccc1)C(=O)N[C@@H](CCCNC(=N)N)C(=O)N[C@H](Cc1c[nH]c2ccccc12)C(=O)N[C@@H](CC(=O)O)C(=O)N[C@@H](CCCNC(=N)N)C(=O)N[C@@H](Cc1ccccc1)C(=O)NCC(=O)O) [CTX-1183] | 71.6 nM | 515
5 | YVXAHFRWDRFG (D-Tyr at 1; Nle at 3; D-Ala at 4; D-Trp at 8) [CTX-1125] | 1.7 nM | 747
6 | Ac-V[Nle][dA]HFR[dW]DRFG-OH (SMILES CCCC[C@H](NC(=O)[C@@H](NC(C)=O)C(C)C)C(=O)N[C@H](C)C(=O)N[C@@H](Cc1c[nH]cn1)C(=O)N[C@@H](Cc1ccccc1)C(=O)N[C@@H](CCCNC(=N)N)C(=O)N[C@H](Cc1c[nH]c2ccccc12)C(=O)N[C@@H](CC(=O)O)C(=O)N[C@@H](CCCNC(=N)N)C(=O)N[C@@H](Cc1ccccc1)C(=O)NCC(=O)O) [CTX-1121] | 3.1 nM | 2120
7 | Ac-[Nle][dNle]HFR[dW]DRFG-OH (SMILES CCCC[C@H](NC(C)=O)C(=O)N[C@H](CCCC)C(=O)N[C@@H](Cc1c[nH]cn1)C(=O)N[C@@H](Cc1ccccc1)C(=O)N[C@@H](CCCNC(=N)N)C(=O)N[C@H](Cc1c[nH]c2ccccc12)C(=O)N[C@@H](CC(=O)O)C(=O)N[C@@H](CCCNC(=N)N)C(=O)N[C@@H](Cc1ccccc1)C(=O)NCC(=O)O) [CTX-1182] | 14.6 nM | 1410
8 | YVXAHFRWDRFG (Nle at 3; D-Ala at 4; D-Trp at 8; C-terminal amide) [CTX-1118] | 1.2 nM | 59
9 | Ac-TGH[dF]R[dW]D-NH2 (SMILES CC(=O)N[C@H](C(=O)NCC(=O)N[C@@H](Cc1c[nH]cn1)C(=O)N[C@H](Cc1ccccc1)C(=O)N[C@@H](CCCNC(=N)N)C(=O)N[C@H](Cc1c[nH]c2ccccc12)C(=O)N[C@@H](CC(=O)O)C(N)=O)[C@@H](C)O) [CTX-1113] | 4430 nM | 0.4
10 | Ac-[Nle][dP]HFR[dW]DRFG-OH (SMILES CCCC[C@H](NC(C)=O)C(=O)N1CCC[C@@H]1C(=O)N[C@@H](Cc1c[nH]cn1)C(=O)N[C@@H](Cc1ccccc1)C(=O)N[C@@H](CCCNC(=N)N)C(=O)N[C@H](Cc1c[nH]c2ccccc12)C(=O)N[C@@H](CC(=O)O)C(=O)N[C@@H](CCCNC(=N)N)C(=O)N[C@@H](Cc1ccccc1)C(=O)NCC(=O)O) [CTX-1184] | 607 nM | 28
11 | Ac-SGHFR[dW]D-NH2 [CTX-1110] | 7400 nM | –
12 | Ac-[Nle]GHFR[dW]DRFG-OH (SMILES CCCC[C@H](NC(C)=O)C(=O)NCC(=O)N[C@@H](Cc1c[nH]cn1)C(=O)N[C@@H](Cc1ccccc1)C(=O)N[C@@H](CCCNC(=N)N)C(=O)N[C@H](Cc1c[nH]c2ccccc12)C(=O)N[C@@H](CC(=O)O)C(=O)N[C@@H](CCCNC(=N)N)C(=O)N[C@@H](Cc1ccccc1)C(=O)NCC(=O)O) [CTX-1185] | 2.7 nM | 2310
13 | YVXFHFRWDRFG (Nle at 3; D-Phe at 4; D-Trp at 8) [CTX-1136] | 1.9 nM | 37
14 | R1-V[Nle][dA]HFR[dW]DRFG-OH (reading uncertain) [CTX-1149 (R1, SEQ ID NO 66)] | 710 nM | 6800
15 | H-YVE[dA]H[dF]R[dW]DRFG-OH (SMILES CC(C)[C@H](NC(=O)[C@@H](N)Cc1ccc(O)cc1)C(=O)N[C@@H](CCC(=O)O)C(=O)N[C@H](C)C(=O)N[C@@H](Cc1c[nH]cn1)C(=O)N[C@H](Cc1ccccc1)C(=O)N[C@@H](CCCNC(=N)N)C(=O)N[C@H](Cc1c[nH]c2ccccc12)C(=O)N[C@@H](CC(=O)O)C(=O)N[C@@H](CCCNC(=N)N)C(=O)N[C@@H](Cc1ccccc1)C(=O)NCC(=O)O) [CTX-1106] | 5.8 nM | 120
16 | YVXAHFRWDRFG (NMe-Tyr at 1; Nle at 3; D-Ala at 4; D-Trp at 8) [CTX-1124] | 1.7 nM | 69
17 | Ac-[Nle][dA]HFR[dW]D-NH2 (SMILES CCCC[C@H](NC(C)=O)C(=O)N[C@H](C)C(=O)N[C@@H](Cc1c[nH]cn1)C(=O)N[C@@H](Cc1ccccc1)C(=O)N[C@@H](CCCNC(=N)N)C(=O)N[C@H](Cc1c[nH]c2ccccc12)C(=O)N[C@@H](CC(=O)O)C(N)=O) [CTX-1123] | 213 nM | 28
18 | Ac-[Nle][dA]HFR[dW]DR[dF]K(R1)-OH (reading uncertain) [CTX-1161] | 952 nM | 22
19 | H-YV[Nle][dA]HFR[dW]DRF-NH2 (SMILES CCCC[C@H](NC(=O)[C@@H](NC(=O)[C@@H](N)Cc1ccc(O)cc1)C(C)C)C(=O)N[C@H](C)C(=O)N[C@@H](Cc1c[nH]cn1)C(=O)N[C@@H](Cc1ccccc1)C(=O)N[C@@H](CCCNC(=N)N)C(=O)N[C@H](Cc1c[nH]c2ccccc12)C(=O)N[C@@H](CC(=O)O)C(=O)N[C@@H](CCCNC(=N)N)C(=O)N[C@@H](Cc1ccccc1)C(N)=O) [CTX-1119] | 1.9 nM | 24
20 | YVXAHFRWDRFG (Nle at 3; D-Ala at 4; D-Phe at 6; D-Trp at 8) [CTX-1104] | 3.5 nM | 27
21 | H-YV[Nle]GH[dF]R[dW]D-NH2 (SMILES CCCC[C@H](NC(=O)[C@@H](NC(=O)[C@@H](N)Cc1ccc(O)cc1)C(C)C)C(=O)NCC(=O)N[C@@H](Cc1c[nH]cn1)C(=O)N[C@H](Cc1ccccc1)C(=O)N[C@@H](CCCNC(=N)N)C(=O)N[C@H](Cc1c[nH]c2ccccc12)C(=O)N[C@@H](CC(=O)O)C(N)=O) [CTX-1107] | 4.4 nM | 2.4
22 | Ac-SGH[dF]R[dW]D-NH2 (SMILES CC(=O)N[C@@H](CO)C(=O)NCC(=O)N[C@@H](Cc1c[nH]cn1)C(=O)N[C@H](Cc1ccccc1)C(=O)N[C@@H](CCCNC(=N)N)C(=O)N[C@H](Cc1c[nH]c2ccccc12)C(=O)N[C@@H](CC(=O)O)C(N)=O) [CTX-1111] | 17100 nM | 0.1
23 | Ac-TGHFR[dW]D-NH2 (SMILES CC(=O)N[C@H](C(=O)NCC(=O)N[C@@H](Cc1c[nH]cn1)C(=O)N[C@@H](Cc1ccccc1)C(=O)N[C@@H](CCCNC(=N)N)C(=O)N[C@H](Cc1c[nH]c2ccccc12)C(=O)N[C@@H](CC(=O)O)C(N)=O)[C@@H](C)O) [CTX-1112] | 4090 nM | 8.6
24 | YVXAHFRWDRFG (Nle at 3; D-Trp at 8) [CTX-1133] | 1.4 nM | 7.4
25 | Ac-[Nle][dV]HFR[dW]DRFG-OH (SMILES CCCC[C@H](NC(C)=O)C(=O)N[C@@H](C(=O)N[C@@H](Cc1c[nH]cn1)C(=O)N[C@@H](Cc1ccccc1)C(=O)N[C@@H](CCCNC(=N)N)C(=O)N[C@H](Cc1c[nH]c2ccccc12)C(=O)N[C@@H](CC(=O)O)C(=O)N[C@@H](CCCNC(=N)N)C(=O)N[C@@H](Cc1ccccc1)C(=O)NCC(=O)O)C(C)C) [CTX-1181] | 102 nM | 718
